The text below walks through data of patent publication US20230074436A1 (DENALI THERAPEUTICS, published 2023).

B1: HC6_LC_k3_2_v1 (antibody, V domains shown)
VH: EVQLVESGGGLVQPGGSLRLSCAASGFTFSNAAMYWVRQAPGKGLELVSRIRTKPNNYATYHADSVKGRFTISRDDSKNTLYLQMNSLRAEDTAVYYCTADMATGDYWGQGTLVTVSS
VL: EIVMTQSPATLSLSPGERATLSCKASQNINKNLDWYQQKPGQAPRPLIYSTNNLKTGIPARFSGSGSGTDFTLTISSLQPEDFAVYYCYQYKSAWTFGQGTKVEIK
B2: HC6_LC_k3_11 (antibody, V domains shown)
VH: EVQLVESGGGLVQPGGSLRLSCAASGFTFSNAAMYWVRQAPGKGLELVSRIRTKPNNYATYHADSVKGRFTISRDDSKNTLYLQMNSLRAEDTAVYYCTADMATGDYWGQGTLVTVSS
VL: EIVMTQSPATLSLSPGERATLSCKASQNISNQLDWYQQKPGQAPRPLIYSTNNLKTGIPARFSGSGSGTDFTLTISSLQPEDFAVYYCYQYKSAWTFGQGTKVEIK
B3: 20H4_HC5_LC_k3_1 (antibody, V domains shown)
VH: EVQLVESGGGLVQPGGSLRLSCAASGFTFSNAAMYWVRQAPGKGLELLARIRTKPNNYATYHADSVKGRFTISRDDSKNTVYLQMNSLRAEDTAVYYCTADMATGDYWGQGTLVTVSS
VL: EIVMTQSPATLSLSPGERATLSCKASQNINNNLDWYQQKPGQAPRPLIYSTNNLKTGIPARFSGSGSGTDFTLTISSLQPEDFAVYYCYQYKSAWTFGQGTKVEIK
B4: HC6_LC_k3_7 (antibody, V domains shown)
VH: EVQLVESGGGLVQPGGSLRLSCAASGFTFSNAAMYWVRQAPGKGLELVSRIRTKPNNYATYHADSVKGRFTISRDDSKNTLYLQMNSLRAEDTAVYYCTADMATGDYWGQGTLVTVSS
VL: EIVMTQSPATLSLSPGERATLSCKASQNISNYLDWYQQKPGQAPRPLIYSTNNLKTGIPARFSGSGSGTDFTLTISSLQPEDFAVYYCYQYKSAWTFGQGTKVEIK
B5: HC5_LC_k3_5 (antibody, V domains shown)
VH: EVQLVESGGGLVQPGGSLRLSCAASGFTFSNAAMYWVRQAPGKGLELLARIRTKPNNYATYHADSVKGRFTISRDDSKNTVYLQMNSLRAEDTAVYYCTADMATGDYWGQGTLVTVSS
VL: EIVMTQSPATLSLSPGERATLSCKASQNINKQLDWYQQKPGQAPRPLIYSTNNLKTGIPARFSGSGSGTDFTLTISSLQPEDFAVYYCYQYKSAWTFGQGTKVEIK
B6: HC6_LC_k3_6 (antibody, V domains shown)
VH: EVQLVESGGGLVQPGGSLRLSCAASGFTFSNAAMYWVRQAPGKGLELVSRIRTKPNNYATYHADSVKGRFTISRDDSKNTLYLQMNSLRAEDTAVYYCTADMATGDYWGQGTLVTVSS
VL: EIVMTQSPATLSLSPGERATLSCKASANINKQLDWYQQKPGQAPRPLIYSTNNLKTGIPARFSGSGSGTDFTLTISSLQPEDFAVYYCYQYKSAWTFGQGTKVEIK
B7: 20H4_HC5_LC_k3_2_v2 (antibody, V domains shown)
VH: EVQLVESGGGLVQPGGSLRLSCAASGFTFSNAAMYWVRQAPGKGLELLARIRTKPNNYATYHADSVKGRFTISRDDSKNTVYLQMNSLRAEDTAVYYCTADMATGDYWGQGTLVTVSS
VL: EIVMTQSPATLSLSPGERATLSCKASQNINKNLDWYQQKPGQAPRPLIYSTNNLQTGIPARFSGSGSGTDFTLTISSLQPEDFAVYYCYQYKSAWTFGQGTKVEIK
B8: HC6_LC_k3_3 (antibody, V domains shown)
VH: EVQLVESGGGLVQPGGSLRLSCAASGFTFSNAAMYWVRQAPGKGLELVSRIRTKPNNYATYHADSVKGRFTISRDDSKNTLYLQMNSLRAEDTAVYYCTADMATGDYWGQGTLVTVSS
VL: EIVMTQSPATLSLSPGERATLSCKASQNINQNLDWYQQKPGQAPRPLIYSTNNLKTGIPARFSGSGSGTDFTLTISSLQPEDFAVYYCYQYKSAWTFGQGTKVEIK
B9: HC6_LC_k3_13 (antibody, V domains shown)
VH: EVQLVESGGGLVQPGGSLRLSCAASGFTFSNAAMYWVRQAPGKGLELVSRIRTKPNNYATYHADSVKGRFTISRDDSKNTLYLQMNSLRAEDTAVYYCTADMATGDYWGQGTLVTVSS
VL: EIVMTQSPATLSLSPGERATLSCKASQNINANLDWYQQKPGQAPRPLIYSTNNLKTGIPARFSGSGSGTDFTLTISSLQPEDFAVYYCYQYKSAWTFGQGTKVEIK
B10: HC6_LC_k3_4 (antibody, V domains shown)
VH: EVQLVESGGGLVQPGGSLRLSCAASGFTFSNAAMYWVRQAPGKGLELVSRIRTKPNNYATYHADSVKGRFTISRDDSKNTLYLQMNSLRAEDTAVYYCTADMATGDYWGQGTLVTVSS
VL: EIVMTQSPATLSLSPGERATLSCKASQNINENLDWYQQKPGQAPRPLIYSTNNLKTGIPARFSGSGSGTDFTLTISSLQPEDFAVYYCYQYKSAWTFGQGTKVEIK
B11: HC6_LC_k3_1 (antibody, V domains shown)
VH: EVQLVESGGGLVQPGGSLRLSCAASGFTFSNAAMYWVRQAPGKGLELVSRIRTKPNNYATYHADSVKGRFTISRDDSKNTLYLQMNSLRAEDTAVYYCTADMATGDYWGQGTLVTVSS
VL: EIVMTQSPATLSLSPGERATLSCKASQNINNNLDWYQQKPGQAPRPLIYSTNNLKTGIPARFSGSGSGTDFTLTISSLQPEDFAVYYCYQYKSAWTFGQGTKVEIK
B12: HC6_LC_k3_8 (antibody, V domains shown)
VH: EVQLVESGGGLVQPGGSLRLSCAASGFTFSNAAMYWVRQAPGKGLELVSRIRTKPNNYATYHADSVKGRFTISRDDSKNTLYLQMNSLRAEDTAVYYCTADMATGDYWGQGTLVTVSS
VL: EIVMTQSPATLSLSPGERATLSCKASQGISNYLDWYQQKPGQAPRPLIYSTNNLKTGIPARFSGSGSGTDFTLTISSLQPEDFAVYYCYQYKSAWTFGQGTKVEIK
B13: HC5_LC_k3_6 (antibody, V domains shown)
VH: EVQLVESGGGLVQPGGSLRLSCAASGFTFSNAAMYWVRQAPGKGLELLARIRTKPNNYATYHADSVKGRFTISRDDSKNTVYLQMNSLRAEDTAVYYCTADMATGDYWGQGTLVTVSS
VL: EIVMTQSPATLSLSPGERATLSCKASANINKQLDWYQQKPGQAPRPLIYSTNNLKTGIPARFSGSGSGTDFTLTISSLQPEDFAVYYCYQYKSAWTFGQGTKVEIK
B14: HC6_LC_k3_5 (antibody, V domains shown)
VH: EVQLVESGGGLVQPGGSLRLSCAASGFTFSNAAMYWVRQAPGKGLELVSRIRTKPNNYATYHADSVKGRFTISRDDSKNTLYLQMNSLRAEDTAVYYCTADMATGDYWGQGTLVTVSS
VL: EIVMTQSPATLSLSPGERATLSCKASQNINKQLDWYQQKPGQAPRPLIYSTNNLKTGIPARFSGSGSGTDFTLTISSLQPEDFAVYYCYQYKSAWTFGQGTKVEIK
B15: HC5_LC_k3_4 (antibody, V domains shown)
VH: EVQLVESGGGLVQPGGSLRLSCAASGFTFSNAAMYWVRQAPGKGLELLARIRTKPNNYATYHADSVKGRFTISRDDSKNTVYLQMNSLRAEDTAVYYCTADMATGDYWGQGTLVTVSS
VL: EIVMTQSPATLSLSPGERATLSCKASQNINENLDWYQQKPGQAPRPLIYSTNNLKTGIPARFSGSGSGTDFTLTISSLQPEDFAVYYCYQYKSAWTFGQGTKVEIK
B16: HC6_LC_k3_10 (antibody, V domains shown)
VH: EVQLVESGGGLVQPGGSLRLSCAASGFTFSNAAMYWVRQAPGKGLELVSRIRTKPNNYATYHADSVKGRFTISRDDSKNTLYLQMNSLRAEDTAVYYCTADMATGDYWGQGTLVTVSS
VL: EIVMTQSPATLSLSPGERATLSCKASQNISNDLDWYQQKPGQAPRPLIYSTNNLKTGIPARFSGSGSGTDFTLTISSLQPEDFAVYYCYQYKSAWTFGQGTKVEIK
B17: HC6_LC_k3_9 (antibody, V domains shown)
VH: EVQLVESGGGLVQPGGSLRLSCAASGFTFSNAAMYWVRQAPGKGLELVSRIRTKPNNYATYHADSVKGRFTISRDDSKNTLYLQMNSLRAEDTAVYYCTADMATGDYWGQGTLVTVSS
VL: EIVMTQSPATLSLSPGERATLSCKASQGISNYLAWYQQKPGQAPRPLIYSTNNLKTGIPARFSGSGSGTDFTLTISSLQPEDFAVYYCYQYKSAWTFGQGTKVEIK
B18: HC6_LC_k3_12 (antibody, V domains shown)
VH: EVQLVESGGGLVQPGGSLRLSCAASGFTFSNAAMYWVRQAPGKGLELVSRIRTKPNNYATYHADSVKGRFTISRDDSKNTLYLQMNSLRAEDTAVYYCTADMATGDYWGQGTLVTVSS
VL: EIVMTQSPATLSLSPGERATLSCKASQNINDNLDWYQQKPGQAPRPLIYSTNNLKTGIPARFSGSGSGTDFTLTISSLQPEDFAVYYCYQYKSAWTFGQGTKVEIK
B19: HC5_LC_k3_2_v1 (antibody, V domains shown)
VH: EVQLVESGGGLVQPGGSLRLSCAASGFTFSNAAMYWVRQAPGKGLELLARIRTKPNNYATYHADSVKGRFTISRDDSKNTVYLQMNSLRAEDTAVYYCTADMATGDYWGQGTLVTVSS
VL: EIVMTQSPATLSLSPGERATLSCKASQNINKNLDWYQQKPGQAPRPLIYSTNNLKTGIPARFSGSGSGTDFTLTISSLQPEDFAVYYCYQYKSAWTFGQGTKVEIK
B20: HC5_LC_k3_3 (antibody, V domains shown)
VH: EVQLVESGGGLVQPGGSLRLSCAASGFTFSNAAMYWVRQAPGKGLELLARIRTKPNNYATYHADSVKGRFTISRDDSKNTVYLQMNSLRAEDTAVYYCTADMATGDYWGQGTLVTVSS
VL: EIVMTQSPATLSLSPGERATLSCKASQNINQNLDWYQQKPGQAPRPLIYSTNNLKTGIPARFSGSGSGTDFTLTISSLQPEDFAVYYCYQYKSAWTFGQGTKVEIK
B21: HC2_LC1 (antibody, V domains shown)
VH: EVQLVESGGGLVQPGGSLRLSCAASGFTFSNAAMYWVRQAPGKGLELVSRIRTKPNNYATYHADSVKGRFTISRDNSKNTLYLQMNSLRAEDTAVYYCTADMATGDYWGQGTLVTVSS
VL: DIQMTQSPSSLSASVGDRVTITCKASQNINKNLDWYQQKPGKAPKLLIYSTNNLQTGVPSRFSGSGSGTDFTLTISSLQPEDFATYYCYQYKSAWTFGQGTKVEIK
notes: humanized 20H4 IgG

The first assay deals with T1, human alpha-synuclein monomer (human, UniProt P37840 1-140). Nature of the assay: SPR (Biacore 8K), IgG captured on anti-human Fc, aSyn monomer injected.
Experimental: (§1) Serial 3-fold dilutions of aSyn were injected at a flow rate of 30 μL/min. Each sample was analyzed using a 3-minute association and a 10-minute dissociation. After each injection, the chip was regenerated using 3 M MgCl₂. Binding response was corrected by subtracting the RU from a flow cell capturing an irrelevant IgG at similar density. A 1:1 Languir model of simultaneous fitting of kₒₙ and koff was used for kinetics analysis.
Regarding B1, the Kd was 220 pM.

Regarding B2, the affinity, expressed as Kd, was 240 pM.

As to B3, the Kd turned out to be 130 pM.

In turn, B4 returned a Kd of 220 pM.

Molecule B5 had a Kd of 130 pM.

B6 yielded a Kd of 140 pM.

In turn, B7 returned a Kd of 1300 pM.

B8 gave a Kd of 160 pM.

Regarding B9, the Kd is 170 pM.

B10 yielded a Kd of 180 pM.

With B11, the Kd is 160 pM.

On to B12, for which the Kd worked out at 220 pM.

On to B13, for which the Kd was 190 pM.

In turn, B14 gave a Kd of 210 pM.

B15 came in with a Kd of 150 pM.

Molecule B16 had a Kd of 170 pM.

B17 registered a Kd of 170 pM.

B18 displayed a Kd of 150 pM.

In the case of B19, the Kd amounted to 170 pM.

B20 came in with a Kd of 170 pM.

The target of a further assay is T1, human alpha-synuclein monomer. The description is as above. The source holds these as a separate data set.
Experimental: as §1
Consider B21, for which the Kd is 3210 pM.
